Assay results published in paper PMC9828358.

Legend:
[1] = target: 33‐mer gliadin peptide (wheat); assay: other fluorescence titration; intrinsic Tyr steady-state fluorescence anisotropy against peptide concentration (100-600 μM), stabilised aqueous solution pH 6.5, 25 °C, excitation 280 nm, emission 305 nm; simple one-to-one binding model; step: association of oligomers into the larger structures
[2] = target: 33‐mer gliadin peptide (wheat); assay: surface tension (Wilhelmy plate); titration of freshly filtered (220 nm cut-off) peptide into the subphase, nanomolar range, 22 °C; critical concentration of aggregation

Kd [1]: 165 µM
critical concentration of aggregation (CAC) [2]: 75 nM
Substance: 33‐mer gliadin peptide
